T1: human fusion protein hOX40-HIS (human, UniProt P43489 29-216, limits assumed)
T1 construct: it looks like the extracellular region; also called hOX40-HIS antigen; human OX40 antigen
T1 sequence: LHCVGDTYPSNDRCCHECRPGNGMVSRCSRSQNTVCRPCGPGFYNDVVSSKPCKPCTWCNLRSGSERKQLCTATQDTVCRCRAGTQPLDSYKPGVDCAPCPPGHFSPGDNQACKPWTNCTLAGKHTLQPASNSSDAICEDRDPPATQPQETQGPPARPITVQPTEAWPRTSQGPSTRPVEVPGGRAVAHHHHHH

T2: hOX40 protein on the cell membrane surface (293T-OX40 stably transfected cells) (human, UniProt P43489 29-277)
T2 construct: whole, on cells; also called hOX40 on the surface of the cell membrane; 293T cells expressing hOX40
T2 sequence (looked up): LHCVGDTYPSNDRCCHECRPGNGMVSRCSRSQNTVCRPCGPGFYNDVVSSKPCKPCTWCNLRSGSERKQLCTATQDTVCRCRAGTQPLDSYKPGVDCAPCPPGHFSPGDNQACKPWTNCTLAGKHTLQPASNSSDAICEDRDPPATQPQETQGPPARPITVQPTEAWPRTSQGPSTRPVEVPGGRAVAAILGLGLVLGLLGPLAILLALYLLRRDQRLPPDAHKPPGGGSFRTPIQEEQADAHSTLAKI

T3: murine OX40 antigen (murine, UniProt P47741 20-211, limits assumed)
T3 sequence (looked up): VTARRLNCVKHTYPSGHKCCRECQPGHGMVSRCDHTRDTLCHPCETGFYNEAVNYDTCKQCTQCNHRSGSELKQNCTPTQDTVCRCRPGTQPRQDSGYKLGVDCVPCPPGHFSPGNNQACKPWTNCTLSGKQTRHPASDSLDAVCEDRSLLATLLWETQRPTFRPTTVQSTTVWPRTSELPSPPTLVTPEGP


Key:
[1] = biological target: T1, human fusion protein hOX40-HIS; assay: ELISA, coated hOX40-HIS; antibody 0.64 ng/ml; well 2
Method: (§1) For the hybridoma antibodies prepared in Example 1, the specific binding of different antibodies to hOX40 was detected by the following steps:
(§2) 3) addition of the primary antibody: preparing the four antibodies to a concentration of 2 μg/ml, and diluting 1:5 from the 2 μg/ml as the starting concentration to 7 gradient concentrations (that is, the concentrations of 2μg/ml, 400 ng/ml, 80 ng/ml, 16 ng/ml, 3.2 ng/ml, 0.64 ng/ml, 0.128 ng/ml, respectively). The prepared primary antibodies were added individually, and incubated at 30° C. for 1 hour; PBS was used as the blank control group;

[2] = biological target: T1, human fusion protein hOX40-HIS; assay: ELISA, coated hOX40-HIS; antibody 80 ng/ml; well 2
Method: as §1, §2

[3] = biological target: T1, human fusion protein hOX40-HIS; assay: ELISA, coated hOX40-HIS; antibody 0.128 ng/ml; well 1
Method: as §1, §2

[4] = biological target: T1, human fusion protein hOX40-HIS; assay: ELISA, coated hOX40-HIS; antibody 2000 ng/ml; well 1
Method: as §1, §2

[5] = biological target: T1, human fusion protein hOX40-HIS; assay: ELISA, coated hOX40-HIS; antibody 3.2 ng/ml; well 2
Method: as §1, §2

[6] = biological target: T1, human fusion protein hOX40-HIS; assay: ELISA, coated hOX40-HIS; antibody 16 ng/ml; well 1
Method: as §1, §2

[7] = biological target: T1, human fusion protein hOX40-HIS; assay: SPR, ProteOn XPR, hOX40-HIS immobilized on GLM chip, antibody as analyte
Method: The ProteOn XPR molecular interaction instrument may be used to detect the kinetics and affinity constants of the interaction between different drugs and a variety of different target proteins. 250 nM hOX40-HIS antigen ([…] hOX40 antigen) was immobilized on the surface of the GLM chip, and after equilibrating in PBST, was allowed to bind to the antibody 9C12 diluted twice in PBST to the concentration of 50, 25, 12.5, 6.25, 3.125, 0 nM, respectively, and then dissociated in PBST.

[8] = biological target: T1, human fusion protein hOX40-HIS; assay: ELISA, coated hOX40-HIS; antibody 80 ng/ml; well 1
Method: as §1, §2

[9] = biological target: T1, human fusion protein hOX40-HIS; assay: ELISA, coated hOX40-HIS 0.6 ug/ml
Method: as §2
The ELISA test results are shown in Table 1, in which, the EC₅₀ value represents the half-maximal effect concentration, that is, the concentration that can cause 50% of the maximum effect.

[10] = biological target: T1, human fusion protein hOX40-HIS; assay: ELISA, coated hOX40-HIS; antibody 400 ng/ml; well 1
Method: as §1, §2

[11] = biological target: T1, human fusion protein hOX40-HIS; assay: ELISA, coated hOX40-HIS; antibody 400 ng/ml; well 2
Method: as §1, §2

[12] = biological target: T1, human fusion protein hOX40-HIS; assay: ELISA, coated hOX40-HIS; antibody 2000 ng/ml; well 2
Method: as §1, §2

[13] = biological target: T1, human fusion protein hOX40-HIS; assay: ELISA, coated hOX40-HIS; antibody 3.2 ng/ml; well 1
Method: as §1, §2

[14] = biological target: T1, human fusion protein hOX40-HIS; assay: ELISA, coated hOX40-HIS; antibody 0.128 ng/ml; well 2
Method: as §1, §2

[15] = biological target: T1, human fusion protein hOX40-HIS; assay: ELISA, coated hOX40-HIS; antibody 0.64 ng/ml; well 1
Method: as §1, §2

[16] = biological target: T1, human fusion protein hOX40-HIS; assay: ELISA, coated hOX40-HIS; antibody 16 ng/ml; well 2
Method: as §1, §2

[17] = biological target: T2, hOX40 protein on the cell membrane …; assay: flow cytometry on 293T-OX40 cells
Method: In this experiment, 293T-OX40 stably transfected cell lines were used as the experimental cells, and the FACS method was used to detect the binding of 9C12 to the hOX40 protein on the cell membrane surface. The specific procedure is as follows:
293T cells expressing hOX40 were digested, and prepared to a final concentration of 10⁶ cells/ml. 100 μl of cell suspension from each group was added into a 1.5 ml EP tube. Various concentrations of 9C12 antibody (10000 ng/ml, 4000 ng/ml, 2000 ng/ml, 1000 ng/ml, 500 ng/ml, 200 ng/ml, 20 ng/ml, 2 ng/ml) were added, and incubated on ice for 1 hour. After 1 hour, the tube was washed with HBSS once. Each group was added with prepared APC goat anti-human IgG secondary antibody, incubated on ice for 20 minutes in the dark, washed once with HBSS, and finally suspended with 200 μl of HBSS, and the cells were tested.

[18] = biological target: T3, murine OX40 antigen; assay: ELISA, coated murine OX40 antigen 0.25 ug/ml
Method: (§3) Human OX40 antigen, monkey OX40 antigen and murine OX40 antigen were used for coating respectively to detect whether OX40 antibody cross-reacts with OX40 protein of different species, through the following steps:
(§4) 3) addition of the primary antibody: preparing antibody 9C12 to a concentration of 2 μg/ml, and diluting 1:5 from the 2 μg/ml as the starting concentration to […] 7 gradient concentrations (that is, the concentrations of 2 μg/ml, 400 ng/ml, 80 ng/ml, 16 ng/ml, 3.2 ng/ml, 0.64 ng/ml, 0.128 ng/ml, respectively). PBS was used as the blank control group. The prepared primary antibodies were added individually, and incubated at 30° C. for 1 hour;

[19] = biological target: T4, monkey OX40 antigen (monkey); assay: ELISA, coated monkey OX40-HIS 0.25 ug/ml
T4 construct: also called Monkey OX40-HIS antigen
Method: as §3, §4

[20] = biological target: T1, human fusion protein hOX40-HIS; assay: ELISA, coated human OX40-HIS 0.25 ug/ml
Method: as §3, §4

Binder	absorbance at 450 nm [1]	absorbance at 450 nm [2]	absorbance at 450 nm [3]	absorbance at 450 nm [4]	absorbance at 450 nm [5]	absorbance at 450 nm [6]	Kd [7] [nM]	koff [7] [s⁻¹]	kon [7] [M⁻¹ s⁻¹]	absorbance at 450 nm [8]	EC50 [9] [nM]	absorbance at 450 nm [10]	absorbance at 450 nm [11]	absorbance at 450 nm [12]	absorbance at 450 nm [13]	absorbance at 450 nm [14]	absorbance at 450 nm [15]	absorbance at 450 nm [16]	further results
antibody 8A7 (antibody, V domains shown, Purified mouse hybridoma antibody; also called 8A7 antibody; 8A7 Ab) VH: QVQLQESGPSHVKPSQTLSLTCSVTGDSITSGYWNWIRKFPGNKLEYLGYISFSGNTYYNPSLKSRISIIRDTSKNQYYLQLNSVTTEDTATYYCARYPYSYSNWDYAMDYWGQGTSVTVSS VL: DIVMTQSPSSLVVSVGEKVTMSCKSSQFLLYSSSQKNYLAWYQQKPGQSPQLLIYWASTRESGVPDRFTGSGSGTDFTLTISSVKAEDLAVYYCHQYYSYPLTFGAGTKLELK	0.058	0.87	0.05	1.93	0.094	0.272	20.8	0.000567	27300	0.894	0.727	1.64	1.66	1.98	0.096	0.056	0.059	0.288	
antibody 1D9 (antibody, V domains shown, Purified mouse hybridoma antibody; also called 1D9 antibody; 1D9 Ab) VH: EVQLQQSGPELVKPGALVKISCKASGYTFTNYDINWVKQRPGQGLEWIGWIYPEDGSTKYNEKFKGKATLTADKSSSTAYMQLSSLTSENSAVYFCARDTRGYFDYWGQGTTLTVSS VL: DIVMTQTTAIMSASLGEKVTMSCRASSSVNYIYWYQQKSDASPKLWIYYTSNLAPGVPARFSGSGSGNSYSLTISSMEGEDAATYYCQQFTSSPWTFGGGTKLEFKR	0.053	0.287	0.053	2.95	0.066	0.104				0.316	10.8	1.11	1.12	3.08	0.061	0.052	0.051	0.123	
antibody 9C12 (antibody, V domains shown, Purified mouse hybridoma antibody; also called 9C12 antibody; 9C12 Ab) VH: QVQLQQSGGGLVKPGGSLKLSCAASGFTFSDYYMYWVRQTPEKRLEWVATISDGGSNTYYPDSVKGRFTISRDNAKNNLYLQMSSLKSEDTATYYCARRGTGTGFGYWGQGTLVTVSA VL: DIVLTQTTASLSVSVGETVTITCRASENIYSTLAWYQQKQGKSPQLLVYAATNLVAGVPSRFSGSGSGTQYSLKINSLQSEDFGSYYCQHFWGIPWTFGGGTKLEIK	0.464	2.51	0.147	2.72	1.51	2.4	0.151	6.73e-05	445000	2.59	0.017	2.59	2.52	2.68	1.58	0.138	0.464	2.25	EC50 [17]: 2.84 nM; binding result [18]: no binding (tested: 2000 ng/ml); EC50 [19]: 0.01 nM; EC50 [20]: 0.012 nM

Reference: US20220017632A1 (HANX BIOPHARMACEUTICS, published 2022)
